System: MS2 coat protein
Assay: apparent KD of MS2 coat protein; designed switch direction (-1 OFF switch, 1 ON switch): -1; higher = weaker reporter binding
In short: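 Transcription of designed RNA switches on Illumina chips was done by stalled E. coli RNA polymerase. SNAP-549-labelled MS2 coat protein was then titrated in doubling steps from 0.7 or 1.5 nM to 3 µM, with steps of 0.8–1.5 h at the lowest and 10–20 min at the highest concentration. The per-design median over clusters of curve-fitted normalised fluorescence is reported as apparent KD.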

[1] = input ligand: microRNA oligo, concentration not stated
[2] = Eterna round: R95, input ligand: FMN 200 uM
[3] = Eterna round: R95, input ligand: microRNA oligo, concentration not stated
[4] = Eterna round: R95, input ligand: none

Row | Sequence | apparent KD of MS2 coat protein (input ligand: FMN 200 uM) | apparent KD of MS2 coat protein (input ligand: none) | apparent KD of MS2 coat protein [3] | also measured
1 | GCCGGGCGUGUAGGAUAUGGCCGGCGGUGCCGGCCAGAAGGACAUGAGGAUCACCCAUGUGCCGGCCUUGGGCCGGCGCCCGGC [-51, -48 kcal and 14% A] (Eterna round: R96, puzzle: Exclusion NG 1) | 14.9 nM | 13.3 nM | – | apparent KD of MS2 coat protein [1]: 8.09 nM
2 | AUUAUAACAUAGGAUAUCGAAUUUAUCAUUUAACGAGAAGGAUGAACAUGAGGAUCACCCAUGUGGUAUCAUGG [Mat - Exclusion 6 - JL Mod - D3] (puzzle: Exclusion 6) | – | – | 173 nM | apparent KD of MS2 coat protein [2]: 55 nM; apparent KD of MS2 coat protein [4]: 33.5 nM
3 | GCCGGUCAUGUAGGAUAUGGCCGGCGGUGCCGGCCAGAAGGACAUGAGGAUCACCCAUGUGCCGGCCUUUGGCCGGCGCCCGGC (Eterna round: R96, puzzle: Exclusion NG 1) | 8.65 nM | 18.6 nM | – | apparent KD of MS2 coat protein [1]: 11.2 nM
4 | UUGUUACAUGAGGAUCACCCAUGUGAGGAUAUGAGUCAGUCACGGUGACGUGGCUGACUCAGAAGGCACAAAGG [Mat - Exclusion 1 - JL Mod - D40] (Eterna round: R97, puzzle: Exclusion 1) | 310 nM | 120 nM | – | –
5 | UUUAGUUUAGGAUAUGUAGAUUUUAACAUGAGGAUCACCCAUGUAGAUCCUGAAUUAACUACAGAAGGGAGCAUUU [Mod of Brourd 15 - Jieux - Exclusion 5] (Eterna round: R97, puzzle: Exclusion 5) | 70.5 nM | 68.2 nM | – | –
6 | AAAGUACAUGAGGAUCACCCAUGUCAGGAUAUUGCCACAAGGCCCGGAGCCCAGAGCGCGAGAAGGGACAUUAG [Eternabot (Original) Solution 12] (Eterna round: R97, puzzle: Exclusion 1) | 55.4 nM | 24 nM | – | –
7 | CAUGGAUGUGAGCCGCAUUACAUGAGGAUCACCCAUGUCAACAAGCUUUUUGCUUGUCUUACGCGGCGACAUCAGAA [Tiquatge] (puzzle: Sensor v3, turn-off variant 1) | – | – | 8.33 nM | apparent KD of MS2 coat protein [2]: 11.7 nM; apparent KD of MS2 coat protein [4]: 10.1 nM
8 | GUGUCGUAAGGAUAUUUACCUGAGCCACUAGAGCGCUUGGAGAAGAAGGUACAUGAGGAUCACCCAUGUGGUGA [Eternabot (L2) Solution 61] (Eterna round: R97, puzzle: Exclusion 4) | 1430 nM | 2570 nM | – | –
9 | ACUUCGUCAGGAUAUCGAGUGACCAAGUACACUGGCUUGGCUGAGAAGGGACAUGAGGAUCACCCAUGUGGGAG [Eternabot (L1) Solution 52] (Eterna round: R97, puzzle: Exclusion 4) | 356 nM | 187 nM | – | –
10 | GCCGAAAAAGUGAGGAUAUACCUAUGGAUACAUAGGUAGAAGGCACAUGAGGAUCACCCAUGUAUCCUAACGGC [Eli bmx4 4.28] (Eterna round: R97, puzzle: Brourd's mod of Exclusion 4) | 362 nM | 29 nM | – | –
11 | CAAAUUGCAGGAUAUACUGGGCCAGAGCCAUCGUGUAUUCCACAUGAGGAUCACCCAUGUAGAAGGGCACGUAC [Aqueran] (puzzle: Exclusion 2) | – | – | 23.8 nM | –
12 | AGCUGUGGCCGAGGAUAUCUAACUUCAAAUACCGACGUAUAGUCGGACAUGAGGAUCACCCAUGUAGAGAAGGCGGUCUCAGCA [Eli eng2 - 037] (Eterna round: R96, puzzle: Exclusion NG 2) | – | – | – | apparent KD of MS2 coat protein [1]: 12.3 nM
13 | ACAAGUUUUUAGAUUCUUAACAUGAGGAUCACCCAUGUGCUCGUCUUGUUGGGCCCGGGCCCGCCGGGCCCGGGCCC (Eterna round: R97, puzzle: Sensor, turn-off variant 1) | 60.5 nM | 72.2 nM | – | –
14 | UUGGUGUCAGGAUAUGCUUAAUAUAUUUUAUUAUAAUAUAUACAUGAGGAUCACCCAUGUAGAAGGGACAUUGU [LRO-Excl2-07-Fireball XL5] (Eterna round: R97, puzzle: Exclusion 2) | 30.2 nM | 45.8 nM | – | –
15 | AUAUAACAUGAGGAUCACCCAUGUCAGGAUAUGCAGAACAAGAACAAGACAAGACAGAGCAGAAGGGACAAUAU [Ex 1 M4] (puzzle: Exclusion 1) | – | – | 34.9 nM | apparent KD of MS2 coat protein [2]: 43.8 nM; apparent KD of MS2 coat protein [4]: 48.1 nM
16 | UUUUAACAUGAGGAUCACCCAUGUGAGGAUAUCGAAAUUUAUAUUAAUAUUUUUAUAUCGAGAAGGCACAUUUU [JMF 72] (puzzle: Exclusion 1) | – | – | 84.7 nM | –

Row | Sequence | apparent KD of MS2 coat protein (input ligand: FMN 200 uM) | apparent KD of MS2 coat protein (input ligand: none) | apparent KD of MS2 coat protein [3] | also measured
17 | GUUGUUUAUGUAGGAUAUGCCUGGCGUGCCUUUGCAGAAGGACAUGAGGAUCACCCAUGUAACAUGAGGCUCACCCAUGUCGCC [salish99_ExNG1_r04_108] (Eterna round: R96, puzzle: Exclusion NG 1) | 220 nM | 160 nM | – | apparent KD of MS2 coat protein [1]: 72.6 nM
18 | UUUCCCUGGCAAGGAUAUCCUGUGCGGUUCCGGCUCGUGUCUGUUACAUGAGGAUCACCCAUGUGGGAGAAGGUGCCUGUGGCU [Design 91] (Eterna round: R96, puzzle: Exclusion NG 2) | – | – | – | apparent KD of MS2 coat protein [1]: 47.4 nM
19 | UUAUAUAGUGUGAGGAUAUGCUGGUCCUUGGAUCAGCAGAAGGCACAUGAGGAUCACCCAUGUAGUUUAUUAUU [Mat - Exclusion 4 - JL Mod - D10] (puzzle: Brourd's mod of Exclusion 4) | – | – | 24.8 nM | –
20 | CCUUUGUCAGGAUAUCGAAAAGGGAGGCCAAAAGCCUCCGGUGAGAAGGGACAUGAGGAUCACCCAUGUGAAAA [Usleaor] (puzzle: Exclusion 4) | – | – | 37.9 nM | –
21 | AAAAAACAUGAGGAUCACCCAUGUGAGGAUAUGCUAAAAAAAUCCGCAUGAAAAAAUAGCAGAAGGCACAUAAA [PK2] (Eterna round: R96, puzzle: Exclusion 1) | 93.5 nM | 36.2 nM | – | apparent KD of MS2 coat protein [1]: 27.2 nM
22 | GGGCUCGGAGGAUAUACAUGAGGAUCACCCAUGUAGGGCCCGGGUAUUCCCGGGCCCUGUAGAAGGCUGGGUCU [-39, -36.1 kcal, A 19%, 0-7] (Eterna round: R97, puzzle: Exclusion 3) | 19.7 nM | 16.5 nM | – | –
23 | AAAUAACAAGCGAGAUCCUACAUGAGGAUCACCCAUGUGCUCGUCUUAAUAAGUACUAUCACGAAAGUGAUAGUACA [Mat - Sensor v3 - turn-off var 1 - Eli Mod - D67] (Eterna round: R96, puzzle: Sensor v3, turn-off variant 1) | 15.8 nM | 18.2 nM | – | apparent KD of MS2 coat protein [1]: 333 nM
24 | CUUCGACAUGAGGAUCACCCAUGUCAGGAUAUUGUGUAUCGGGUUUUUUACGGUAAGGCAAGAAGGGAUGUGUG [LRO-Excl1-08] (puzzle: Exclusion 1) | – | – | 29.9 nM | –
25 | UAACUUCUUGUAAGGAUAUCGGCGCGAAAGCGCAACGAGAAGGUACAUGAGGAUCACCCAUGUGAAAUAAGAAU [Mod of Zala 12 - Jieux - Brourd's Mod of Exclusion 4] (Eterna round: R97, puzzle: Brourd's mod of Exclusion 4) | 104 nM | 28.3 nM | – | –
26 | CCUCUUGGGCAAGGAUAUCCUGUGCGGUUCCGGCUCGUGUCUGUCACAUGAGGAUCACCCAUGUGGGAGAAGGUGCCUGCGGUC [Design 80] (Eterna round: R96, puzzle: Exclusion NG 2) | 13 nM | 16.3 nM | – | apparent KD of MS2 coat protein [1]: 10.7 nM
27 | GAGUGACAUGAGGAUCACCCAUGUGAGGAUAUCGGACGGACCAAAUUAACAAUAAUUGCGAGAAGGCGCAUCGG [Exclusion 1 V15] (puzzle: Exclusion 1) | – | – | 51.6 nM | apparent KD of MS2 coat protein [2]: 76 nM; apparent KD of MS2 coat protein [4]: 54.4 nM
28 | UGUUGUCGCGUAGGAUAUGCAUGAGGAUCACCCAUGCAAUUAGAGUUAACAUGAGGAUCACCCAUGUAGAAGGGCGGGACAACU [pwkr exNG2 2xF5 1xFMN.7] (Eterna round: R96, puzzle: Exclusion NG 2) | 62.8 nM | 51.2 nM | – | apparent KD of MS2 coat protein [1]: 42.2 nM
29 | GAGUGGCAAGGAUAUACAGUGGAGAGGAUGGCAAGAGGUGGACAUGAGGAUCACCCAUGUAGAAGGUGCAGAGA [JR_Exclu2_Sub024] (puzzle: Exclusion 2) | – | – | 150 nM | –
30 | CUUUUGUGAGGAUAUCAGUAGUAAAUAUAUAAAAUUACUACUGAGAAGGCACAUGAGGAUCACCCAUGUUCCUC [salish99_ex3_r3_079] (puzzle: Exclusion 4) | – | – | 38.8 nM | –
31 | GUGGUUCCUGUCAGGAUAUACGCGGACCACCACCUGUAGAAGGGACAUGAGGAUCACCCAUGUUUUCCAAAGCG [Eternabot (L2) Solution 80] (Eterna round: R97, puzzle: Brourd's mod of Exclusion 4) | 13.2 nM | 13 nM | – | –
